Laboratory results as given in the DeepSol protein solubility set.

assay: soluble on expression in E. coli; label from the status in PepcDB or PDB records

| Sequence | soluble on expression in E. coli |
| --- | --- |
| MYVYKRDGRKEPVQFDKITARISRLCYGLDPKHIDAVKVTQRIISGVYEGVTTIELDNLAAETCAYMTTVHPDYATLAARIAISNLHKQTTKQFSKVVEDLYRYVNAATGKPAPMISDDVYNIVMENKDKLNSAIVYDRDFQYSYFGFKTLERSYLLRINGQVAERPQHLIMRVALGIHGRDIEAALETYNLMSLKYFTHASPTLFNAGTPKPQMSSCFLVAMKEDSIEGIYDTLKECALISKTAGGIGLHIHNIRSTGSYIAGTNGTSNGLIPMIRVFNNTARYVDQGGNKRPGAFALYLEPWHADIFDFIDIRKNHGKEEIRARDLFPALWIPDLFMKRVEENGTWTLFSPTSAPGLSDCYGDEFEALYTRYEKEGRGKTIKAQKLWYSILEAQTETGTPFVVYKDACNRKSNQKNLGVIKSSNLCCEIVEYSAPDETAVCNLASVALPAFIETSEDGKTSTYNFKKLHEIAKVVTRNLNRVIDRNYYPVEEARKSNMRHRPIALGVQGLADTFMLLRLPFDSEEARLLNIQIFETIYHASMEASCELAQKDGPYETFQGSPASQGILQFDMWDQKPYGMWDWDTLRKDIMKHGVRNSLTMAPMPTASTSQILGYNECFEPVTSNMYSRRVLSGEFQVVNPYLLRDLVDLGIWDEGMKQYLITQNGSIQGLPNVPQELKDLYKTVWEISQKTIINMAADRSVYIDQSHSLNLFLRAPTMGKLTSMHFYGWKKGLKTGMYYLRTQAASAAIQFTIDQKIADQATENVADISNLKRPSYMPSSASYAASDFVPAAVTANATIPSLDSSSEASREASPAPTGSHSLTKGMAELNVQESKVEVPEVPAPTKNEEKAAPIVDDEETEFDIYNSKVIACAIDNPEACEMCSG | soluble |
| NAIKESARLPELSLWEKIKAYFFTTHHAEALECIFNLYHHQELNLTPVQVRGAYIKLRALASQGCKEQFIIESQEHADKLIIKDDNGENILSIEVECHPEAFGLAKEINKS | soluble |
| NEVRFVVFHAVDTSEKQILVRSLEEAENKFAKLTQLLPDGLLLIEDDTIISANPASARLLGLNSPHELLGEELSRLFIDENTKKVFSHRLSTLISDKPFVCLTSARCGFERKVQLHADSTAILGSESQIILIQDA | not soluble |
| NEYLNNVKSKYEVQKQRIQIQNDTRYMNEIEAHYNELRRFRHDYQNMLISIDEYLKTDDLEGLQEYYQKNLAPVSNRVLKEKYNLEDLSRVKVKSIKSILFSKLSYAQSQEIEVHFDLKEPLIDITVNELDLDIALGIMLDNAIEASVGHADGEIMSAIFIEKNSTVFLIQNNVFEQLPPLWKLKEAGYSTKGKNRGIGLNSLSKIVNRNENMILETRVLGAVFLQRLTVKRVSQND | not soluble |
| NLKDVEHVVILMQENRSFDHYFGTLKGVRGFGDRMAIPLPDGQRVWHQKGSKGEILPYHFDTSTTSAQRVDGTPHTWPDAQQAWNEGRMDKWLPAKTERSLGYYKEQDIAFQFAMANAFTICDAYHCSFQGGTNPNRLFLWTGTNDPLGQHGGPVTTNDHDSNGPVEQGYTWTTYPERLQAAGITWRVYQDMADNFSDNPLIGFRQYRAAAPDSPLIVNGLSTWKLDALKRDVLANSLPQVSWIVAPAKYSEHPGPSSPIWGAEYTSWVLDALTANPEVWSKTALLVMFDENDGFFDHVAPPAAPSLNKDGTLRGKTTADATLEWHTKGDIRYRNQPYGLGPRVPMYVISPWSKGGWVNSQVFDHTSVIRFLEQRFGVMEPNISPWRRAVCGDLTSAFNFANPNNEPFPELPDTSQADAIVASQIKLPKPKPPAVAAMPKQEMGIRPARALPYELGVHARYRSGGDALSLTFANTGKAGAVFQVFDLLDSENPPKRYTVGARKRLHDSFQGDASGDYHLEVHGPNGFLRVFRGNLRRDLAERKAPLPEVRIDYEPLFGNLRVQLINRGRHPVKLTVKDNVYRQGERRTVNVPPGQRREVRYSLRSSGNWYDFSVSAQGADSFLRRFSGRMEDGRSGFSDPGMGLGTLTF | not soluble |
| NLNSIQNFGAIDILCTDKTGTLTQDKVVLEYHLNVNGEDDTRVLRHAYLNSYFQTGYKNLMDLAIIHKTEEEEAADSRLIDLSENYVKVDEIPFDFTRRRLTTVVQDNKGKTQMVTKGAVEEMLSICAFAECNGGVQPLTDDVRYRILETVDNLNDKGFRVLAIAQKSNPSPIGAFGVKDECDMVLIGYLAFLDP | not soluble |
| NLRSIIESPSFKNAESKLTVAMGYRINNEPLLMDIAKTPHALIAGATGSGKSVCINSILMSLLYKNHPEELRLLLIDPKMVELAPYNGLPHLVAPVITDVKAATQSLKWAVEEMERRYKLFAHYHVRNITAFNKKAPYDERMPKIVIVIDELADLMMMAPQEVEQSIARIAQKARACGIHMLVATQRPSV | not soluble |
| NLSSEYVKDIYAYLRQLEAAQAVRPKYLLGREVTGNMRAILIDWLVQVQMKFRLLQETMYMTVSIIDRFMQNNSVPKKMLQLVGVTAMFIASKYEEMYPPEIGDFAFVTDNTYTKHQIRQMEMKILRALNFGLGRPLPLHFLRRASKIGEVDVEQHTLAKYLMELTMLDYDMVHFPPSQIAAGAFSLALKILDNGEWTPTLQHYLSYTEESLLPVMQHLAKNVVMVNQGLTKHMTVKNKYATSKHAKISTLPQLNSALVQDLAKAVAKV | soluble |
| NNMFSRQAPHFAVTDYDGTLQLLEDGLVLQHDGNHPLALYDYLNDKELRTNLIKTQAARADSMTCRIEAVIQSFNHRMNTNRLVADK | not soluble |
| NQHLTILRNVSDRKRMEKELRESELKFRKVFNGSMDGNVLFDNQYRIIDANPLASHILGLSHEEIKQHSLLDIISAYEIENLASPARQINFDEMDNEIPFLLSSGDNRKLEFSFKRNIIQ | not soluble |
| NRNFSIQMKGTFTYAHNEVLKYDEAAGLRPALSQVGKSLNSIWGYVADGLYIDEADIANNPQSTIGNIAIAPGDVKYVDQPDASGNYDGKITSDDRVVLGYPTIPEIIYGFGPSITWKNWDFSFFFQGQARVSFMMSGFEPFGTQSKNNVLKWISDDHWSKDNQNPNARYPRLTQYNNNNNTASSSYWLRNASFLKLRNAEIGYRFKWARIYVNGSNLLTFSPFKLWDPEMGGGAGMKYPTQRTYNVGIQLTFK | not soluble |
| NVKHAFVDVQLAALPKMAYAAVDFVDYRFDNKHWKSLNEICPEVGLKPYADFAVLEVPLYLNNKLDYQVWENFIKPAIATYKALGDSTNLFASTSSSDLQNDTYFALGYPLLESNIDAIHFNQTGATLTSVPVKDRIKVKNQSFWTLN | not soluble |
| NVLLLDVTPLTLGIETFGGAFSPLIPRNTTVPVKKTEIFSTGVDGQAGVDIKVFQGERGLVRNNKLIGDLKLTGITPLPKGIPQIYVTFDIDADGIINVSAAEKSSGKQQSITVIPNSGLSEEEIAKLIEEANANRAQDNLIRQRLELISKADIMISDTENLFKRYEKLISSEKEYSNIVEDIKALRQAIKNFKANENDMSIDVNGIKKATDALQGRALKLFQSATKNQQNQGK | soluble |
| NVLYENQKQIANQFNKAISQIQESLTTTSTALGKLQDVVNQNAQALNTLVKQLSSNFGAISSVLNDILSRLDKVEAE | soluble |
| NVQEEVTCPICLELLTEPLSLDCGHSLCRACITVSNKEAVTSMGGKSSCPVCGISYSFEHLQANQHLANIVE | soluble |
| NYASHTERQILEVSPVVADEALAQALECKPGTTWLRVRMLRVEKDAAHTPLCWNDAYMLPDVGQRIVGKIPNGSGLLCRIIENEAGIAVADIKQSIGATAIEGEMASRLGVAPGTPGLEITRLYVDRANTPFLITVNTYSAHKFR | not soluble |
| NYDPFVRHSVTVKADRKTAFKTFLEGFPEWWPNNFRTTKVGAPLGVDKKGGRWYEIDEQGEEHTFGLIRKVDEPDTLVIGWRLNGFGRIDPDNSSEFTVTFVADGQKKTRVDVEHTHFDRMGTKHAKRVRNGMDKGWPTILQSFQDKIDEEGAKK | soluble |
| NYNHPFTQLGNQVFPTTPIVSGVRGRVVEVPVQANQPLKTGDILFKIDPVPFEAEVARLEAKVKEASQGALGLESDLREAEAAVLKAQADRDKAQREFSRYQRGFDRGAFTEQDLDTRRQAYKAAEAMLDVAILQQEQAQIALDSEIGGENTQVAQLLAELRKAEFNLEQTIVRAPTDGYVTQLALR | soluble |
| PAVKPVIGEVTPNSIVAEAGIESGMELKAVSGIKTPDWESVNMGLISHIGDDAMTLTLTSDSEVGAEVTKTLDLRDWKFDPETESAMHSLGFAPYTPEIYRVIKQVSEDGAAAKAGVLPEDEIIAIGGEPINDWKQVVDAVRSNPNTPIELTVLRRGIEQSLTLTPDSRELANKQVVGFAGIAPEVAEWPESYRFELQFGVFESIGKAVDKTGQVIGLTVSMLKKLIVGDVGLNNLSGPISIAKGAGATADYGL | not soluble |
| PDQCKPPQVTCRSATCAQVNWEVPLSNGTDVTEYRLEWGGVEGSMQICYCGPGLSYEIKGLSPATTYYCRVQALSVVGAGPFSEVVACVTPPS | soluble |
| PHIDIKCFPRELDEQQKAALAADITDVIIRHLNSKDSSISIALQQIQPESWQAIWDAEIAPQMEALIKKPGYSMNA | soluble |
| PIAQIHILEGRSDEQKETLIREVSEAISRSLDAPLTSVRVIITEMAKGHFGIGGELASKVRR | soluble |
| PIELLPETPSQTAGPYVHIGLALEAAGNPTRDQEIWNRLAKPDAPGEHILLLGQVYDGNGHLVRDSFLEVWQADANGEYQDAYNLENAFNSFGRTATTFDAGEWTLHTVKPGVVNNAAGVPMAPHINISLFARGINIHLHTRLYFDDEAQANAKCPVLNLIEQPQRRETLIAKRCEVDGKTAYRFDIRIQGEGETVFFDF | soluble |
| PKNKAKKNPVRFYKNNFFMLKDKVNNIYVYVYEHKKNDNYNDLYLPRDNVFPYLGRVYINNDNGFIINDVYFSSERIGVKNYYDKDNPILINKHSSEGNRSYGYEPETFAEIKFKTKLDNISKSQIEYIIEFKPYDSIVDYVGDNIKKTLREPVKIEGTFEIIKEDEAEIIRLHNADIFGLYNVESILFSSERIFSGNVFNFDYLFINGKEKINSSINGVKEFSDEFLKDKINENKNIVESYVKESKQRHWKSLMDESILNYIDNYADYYNELKEFKSFNILYYDDKTISLYKRVSKLEDLKLAEIDNMFMTFELESQKLISPYIKDFVNDSEALLKKYNAPSDFYSNIDSLIFGITDSFIIIMNEKGCGKIFIDYKNIKEYINKDHYLAYLFN | not soluble |
| PKYTKSVLKKGDKTNFPKKGDVVHCWYTGTLQDGTVFDTNIQTSAKKKKNAKPLSFKVGVGKVIRGWDEALLTMSKGEKARLEIEPEWAYGKKGQPDAKIPPNAKLTFEVELVDID | soluble |
| PLEKTVRLHSSSGTTGNPTVILHTQKDLDEWANAVARCLYMVGLRPGDIFQNSSGYGMFTGGLGFQYGAERLGMLTVPAAAGNTKRQLKFISDFGTTALHAIPSYAARMYEIMQEMGIDPRRDTKLRTLIIGAEPHSEEQRRRIEDMLGVKAYNSFGMSEMCGPGVAFECQEQNGLHIW | not soluble |
| PNIADKGSVFYHFSATSFDSVDGTRHYRVWTAVPNTTAPASGYPILYMLDGNAVMDRLDDELLKQLSEKTPPVIVAVGYQTNLPFDLNSRAYDYTPAAESRKTDLHSGRFSRKSGGSNNFRQLLETRIAPKVEQGLNIDRQRRGLWGHSYGGLFVLDSWLSSSYFRSYYSASPSLGRGYDALLSRVTAVEPLQFCTKHLAIMEGSATQGDNRETHAVGVLSKIHTTLTILKDKGVNAVFWDFPNLGHGPMFNASFRQALLDISGENANYTAGCHELSH | soluble |
| PPLVANQVVTCPDKKSTAAVILTPTENHFTLKCPKTALTEPPTLAYSPNRQICPAGTTSSCTSKAVTLSSLIPEAEDSWWTGDSASLDTAGIKLTVPIEKFPVTTQTFVVGCIKGDDAQSCMVTVTVQARASSVVNNVARCSYGADSTLGPVKLSAEGPTTMTLVCGKDGVKVPQDNNQYCSGTTLTGCNEKSFKDILPKLTENPWQGNASSDKGATLTIKKEAFPAESKSVIIGCTGGSPEKHHCTVKLEFAG | soluble |
